Results on seven molecules are retold here after article PMC5063714 (Journal of medicinal chemistry, 2016).

Holding throughout (experiment): AlphaScreen or HTRF
A general note: In Alpha technology, singlet oxygen from a donor bead excites a nearby acceptor bead.

The target in assay [1] is chromodomain of CBX8 (human) (UniProt Q9HC52).
In assay [2] the target is chromodomain of CBX5 (human).
Assay [3] addresses chromodomain of CBX8 (human) (UniProt Q9HC52). This is another data set of the same source.
Assay [4] concerns the target chromodomain of CBX4 (human) (UniProt O00257).
The target in assay [5] is chromodomain of CBX7 (human) (UniProt O95931).
Assay [6] has as its target T1, chromodomain of CDYL2 (human) (UniProt Q8N8U2).
T1 sequence: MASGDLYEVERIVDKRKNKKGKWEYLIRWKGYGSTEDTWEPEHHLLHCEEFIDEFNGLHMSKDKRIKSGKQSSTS

Assay [7] deals with T2, chromodomain of CDYL2 (human, UniProt Q8N8U2 1-75).
T2 sequence (looked up): T1 sequence

The target in assay [8] is T3, chromodomain of CBX4 (human, UniProt O00257-1 8-65).
T3 sequence (looked up): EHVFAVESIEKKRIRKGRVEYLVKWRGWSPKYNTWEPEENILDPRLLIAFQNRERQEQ

The target in assay [9] is T4, chromodomain of CBX7 (human, UniProt O95931 8-62).
T4 sequence (looked up): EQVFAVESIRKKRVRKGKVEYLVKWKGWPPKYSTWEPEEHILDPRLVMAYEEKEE

The target in assay [10] is chromodomain of CBX5 (human). This is another data set of the same source.
The target of assay [11] is T2, chromodomain of CDYL2. The source holds these as a separate data set.
For assay [12], the target named is T5, chromodomain of CBX8 (human, UniProt Q9HC52 8-61).
T5 sequence (looked up): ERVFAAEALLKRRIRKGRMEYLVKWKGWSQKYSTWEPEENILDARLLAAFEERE

For assay [13], the target named is T3, chromodomain of CBX4. This is another data set of the same source.
The target of assay [14] is T4, chromodomain of CBX7. This is another data set of the same source.

Like-named read-outs stand apart in the source and are kept apart here. Square brackets hold non-standard residues; d marks the D form. Ends that are not written are not given here. * marks the point of attachment. Lys(Me3) = C[N+](C)(C)CCCC[C@H](N)C(=O)O; diethyl = not defined here; Bz = O=C(c1ccccc1)*

Sequence of chromodomain of CBX5 (human) (Q9UN86 18-75): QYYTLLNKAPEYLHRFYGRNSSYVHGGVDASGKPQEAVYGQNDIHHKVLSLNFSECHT

As a reminder, the IC50 is the concentration needed to halve the response being measured. Lower therefore signals inhibition by little substance. On to compound 1 (UNC3866) (peptide), for which the IC50 in assay [1] was 1.3 µM.

B1: compound 4 (peptide)
peptide: Bz-AL[Lys(Me3)]S-OMe
SMILES: COC(=O)[C@H](CO)NC(=O)[C@H](CCCC[N+](C)(C)C)NC(=O)[C@H](CC(C)C)NC(=O)[C@H](C)NC(=O)c1ccccc1
In the case of B1, the IC50 in [2] is over 60 µM; in assay [3], over 60 µM; in assay [4] it was over 60 µM; in [5], over 60 µM; in assay [6], 16 µM.

B2: compound 5 (peptide)
peptide: Bz-FAL[Lys(Me3)]S-OMe
As to B2, the IC50 in assay [7] came out at 0.57 µM; in assay [8], 6.9 µM; in [9], 2.6 µM; in assay [2], 49 µM.

B3: compound 43 (peptide)
peptide: {4‑tBu‑Bz}-FVLK(diethyl)S-OMe
modifications: reading uncertain
For the molecule B3, the IC50 in [10] was over 60 µM; in assay [11], 0.75 µM; in [12], 0.7 µM; in assay [13], 7.9 µM; in assay [14] it was 3.1 µM.

B4: compound 48 (peptide)
peptide: {4‑tBu‑Bz}-F(CH2NHBoc)ALK(diethyl)S-OMe
modifications: reading uncertain
In the case of B4, the IC50 was found to be 44 µM in assay [10], 0.16 µM in assay [11], 0.098 µM in assay [13] and 0.056 µM in assay [14].

B5: compound 7 (peptide)
peptide: Bz-FAL[Lys(Me3)]
modifications: also: C-terminal R2 = -H in place of -CO-Ser-OMe (no Ser)
For B5, the IC50 is over 60 µM in [2]; over 60 µM in assay [3]; over 60 µM in assay [4]; over 60 µM in [5]; 37 µM in [6].

B6: compound 47 (peptide)
peptide: {4‑tBu‑Bz}-F(CH2NH2)ALK(diethyl)S-OMe
modifications: reading uncertain
On to B6, for which the IC50 is 53 µM in [10], 0.075 µM in assay [11], 0.17 µM in assay [13] and 0.063 µM in assay [14].
